Test results from patent US20260167699A1 (Chugai, published 2026).
Numbering of substitutions follows the chain as printed.

T1: FcγRIIa(R) extracellular domain, His-tagged (human, UniProt P12318 34-217)
T1 construct: extracellular domain; also called 2aR
T1 sequence: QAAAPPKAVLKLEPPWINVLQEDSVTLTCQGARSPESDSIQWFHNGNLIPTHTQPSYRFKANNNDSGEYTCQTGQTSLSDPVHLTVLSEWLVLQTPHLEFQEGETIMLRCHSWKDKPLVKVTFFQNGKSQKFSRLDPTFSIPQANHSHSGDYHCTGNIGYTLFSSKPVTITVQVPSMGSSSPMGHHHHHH

T2: FcγRIIa(H) extracellular domain, His-tagged (human, UniProt P12318 34-217)
T2 construct: extracellular domain; also called 2aH
T2 sequence: T1 sequence with R134H

T3: FcγRIIb extracellular domain, His-tagged (human, UniProt P31994 43-217)
T3 construct: extracellular domain; also called 2b
T3 sequence: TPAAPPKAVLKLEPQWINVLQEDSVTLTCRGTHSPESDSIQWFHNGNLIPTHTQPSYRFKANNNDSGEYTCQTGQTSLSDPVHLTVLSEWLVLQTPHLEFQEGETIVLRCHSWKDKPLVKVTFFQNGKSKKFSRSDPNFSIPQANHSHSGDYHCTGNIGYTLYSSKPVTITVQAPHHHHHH

B1: GpH7-A5/GpH7-B3 variant H268_14T/GpL16-k0 (antibody, human IgG1, kappa)
heavy 1: not shown
heavy 2: not shown
light: DIVMTQSPLSLPVTPGEPASISCQASESLVHSNRNTYLHWYLQKPGQSPQLLIYKVSNRFSGVPDRFSGSGSGTDFTLKISRVEAEDVGVYYCSQNTHVPPTFGQGTKVEIERTVAAPSVFIFPPSDEQLKSGTASVVCLLNNFYPREAKVQWKVDNALQSGNSQESVTEQDSKDSTYSLSSTLTLSKADYEKHKVYACEVTHQGLSSPVTKSFNRGEC
B2: GpH7-A5/GpH7-B3 variant D270_08L/GpL16-k0 (antibody, human IgG1, kappa)
heavy 1: not shown
heavy 2: not shown
light: B1 light
B3: GpH7-A5/GpH7-B3 variant Y300_09D/GpL16-k0 (antibody, human IgG1, kappa)
heavy 1: not shown
heavy 2: not shown
light: B1 light
notes: He Ab; copies: 1 + 1 + 2
B4: GpH7-A5/GpH7-B3 variant Y296_01G/GpL16-k0 (antibody, human IgG1, kappa)
heavy 1: not shown
heavy 2: not shown
light: B1 light
notes: He Ab; copies: 1 + 1 + 2
B5: GpH7-A5/GpH7-B3 variant S324_18N/GpL16-k0 (antibody, human IgG1, kappa)
heavy 1: not shown
heavy 2: not shown
light: B1 light
notes: He Ab; copies: 1 + 1 + 2
B6: GpH7-A5/GpH7-B3 variant Y300_02A/GpL16-k0 (antibody, human IgG1, kappa)
heavy 1: not shown
heavy 2: not shown
light: B1 light
notes: He Ab; copies: 1 + 1 + 2
B7: GpH7-A5/GpH7-B3 variant S324_14T/GpL16-k0 (antibody, human IgG1, kappa)
heavy 1: not shown
heavy 2: not shown
light: B1 light
notes: He Ab; copies: 1 + 1 + 2
B8: GpH7-A5/GpH7-B3 variant Y296_16H/GpL16-k0 (antibody, human IgG1, kappa)
heavy 1: not shown
heavy 2: not shown
light: B1 light
notes: He Ab; copies: 1 + 1 + 2
B9: GpH7-A5/GpH7-B3 variant Y300_10E/GpL16-k0 (antibody, human IgG1, kappa)
heavy 1: not shown
heavy 2: not shown
light: B1 light
notes: He Ab; copies: 1 + 1 + 2
B10: GpH7-A5/GpH7-B3 variant Y296_08L/GpL16-k0 (antibody, human IgG1, kappa)
heavy 1: not shown
heavy 2: not shown
light: B1 light
notes: He Ab; copies: 1 + 1 + 2
B11: GpH7-A5/GpH7-B3 variant Y300_19Q/GpL16-k0 (antibody, human IgG1, kappa)
heavy 1: not shown
heavy 2: not shown
light: B1 light
notes: He Ab; copies: 1 + 1 + 2
B12: GpH7-A5/GpH7-B3 variant Y296_13S/GpL16-k0 (antibody, human IgG1, kappa)
heavy 1: not shown
heavy 2: not shown
light: B1 light
notes: He Ab; copies: 1 + 1 + 2
B13: GpH7-A5/GpH7-B3 variant Y300_20W/GpL16-k0 (antibody, human IgG1, kappa)
heavy 1: not shown
heavy 2: not shown
light: B1 light
notes: He Ab; copies: 1 + 1 + 2
B14: GpH7-A5/GpH7-B3 variant Y300_14T/GpL16-k0 (antibody, human IgG1, kappa)
heavy 1: not shown
heavy 2: not shown
light: B1 light
notes: He Ab; copies: 1 + 1 + 2
B15: GpH7-A5/GpH7-B3 variant Y296_02A/GpL16-k0 (antibody, human IgG1, kappa)
heavy 1: not shown
heavy 2: not shown
light: B1 light
notes: He Ab; copies: 1 + 1 + 2
B16: GpH7-A5/GpH7-B3 variant Y300_04F/GpL16-k0 (antibody, human IgG1, kappa)
heavy 1: not shown
heavy 2: not shown
light: B1 light
notes: He Ab; copies: 1 + 1 + 2
B17: GpH7-A5/GpH7-B3 variant V266_07I/GpL16-k0 (antibody, human IgG1, kappa)
heavy 1: not shown
heavy 2: not shown
light: B1 light
notes: He Ab; copies: 1 + 1 + 2
B18: GpH7-A5/GpH7-B3 variant V266_06M/GpL16-k0 (antibody, human IgG1, kappa)
heavy 1: not shown
heavy 2: not shown
light: B1 light
notes: He Ab; copies: 1 + 1 + 2
B19: GpH7-A5/GpH7-B3 variant Y296_12R/GpL16-k0 (antibody, human IgG1, kappa)
heavy 1: not shown
heavy 2: not shown
light: B1 light
notes: He Ab; copies: 1 + 1 + 2
B20: GpH7-A5/GpH7-B3 variant Y300_08L/GpL16-k0 (antibody, human IgG1, kappa)
heavy 1: not shown
heavy 2: not shown
light: B1 light
notes: He Ab; copies: 1 + 1 + 2
B21: GpH7-A5/GpH7-B3 variant Y296_20W/GpL16-k0 (antibody, human IgG1, kappa)
heavy 1: not shown
heavy 2: not shown
light: B1 light
notes: He Ab; copies: 1 + 1 + 2
B22: GpH7-A5/GpH7-B3 variant S324_15Y/GpL16-k0 (antibody, human IgG1, kappa)
heavy 1: not shown
heavy 2: not shown
light: B1 light
notes: He Ab; copies: 1 + 1 + 2
B23: GpH7-A5/GpH7-B3 variant Y296_18N/GpL16-k0 (antibody, human IgG1, kappa)
heavy 1: not shown
heavy 2: not shown
light: B1 light
notes: He Ab; copies: 1 + 1 + 2
B24: GpH7-A5/GpH7-B3 variant Y296_03V/GpL16-k0 (antibody, human IgG1, kappa)
heavy 1: not shown
heavy 2: not shown
light: B1 light
notes: He Ab; copies: 1 + 1 + 2
B25: GpH7-A5/GpH7-B3 variant Y300_07I/GpL16-k0 (antibody, human IgG1, kappa)
heavy 1: not shown
heavy 2: not shown
light: B1 light
notes: He Ab; copies: 1 + 1 + 2
B26: GpH7-A5/GpH7-B3 variant Y296_11K/GpL16-k0 (antibody, human IgG1, kappa)
heavy 1: not shown
heavy 2: not shown
light: B1 light
notes: He Ab; copies: 1 + 1 + 2
B27: GpH7-A5/GpH7-B3 variant S324_11K/GpL16-k0 (antibody, human IgG1, kappa)
heavy 1: not shown
heavy 2: not shown
light: B1 light
notes: He Ab; copies: 1 + 1 + 2
B28: GpH7-A5/GpH7-B3 variant Y300_06M/GpL16-k0 (antibody, human IgG1, kappa)
heavy 1: not shown
heavy 2: not shown
light: B1 light
notes: He Ab; copies: 1 + 1 + 2
B29: GpH7-A5/GpH7-B3 variant V266_08L/GpL16-k0 (antibody, human IgG1, kappa)
heavy 1: not shown
heavy 2: not shown
light: B1 light
notes: He Ab; copies: 1 + 1 + 2
B30: GpH7-A5/GpH7-B3 variant S324_19Q/GpL16-k0 (antibody, human IgG1, kappa)
heavy 1: not shown
heavy 2: not shown
light: B1 light
notes: He Ab; copies: 1 + 1 + 2
B31: GpH7-A5/GpH7-B3 variant Y296_19Q/GpL16-k0 (antibody, human IgG1, kappa)
heavy 1: not shown
heavy 2: not shown
light: B1 light
notes: He Ab; copies: 1 + 1 + 2
B32: GpH7-A5/GpH7-B3 variant Y300_13S/GpL16-k0 (antibody, human IgG1, kappa)
heavy 1: not shown
heavy 2: not shown
light: B1 light
notes: He Ab; copies: 1 + 1 + 2
B33: GpH7-A5/GpH7-B3 variant S324_16H/GpL16-k0 (antibody, human IgG1, kappa)
heavy 1: not shown
heavy 2: not shown
light: B1 light
notes: He Ab; copies: 1 + 1 + 2
B34: GpH7-A5/GpH7-B3 variant Y300_16H/GpL16-k0 (antibody, human IgG1, kappa)
heavy 1: not shown
heavy 2: not shown
light: B1 light
notes: He Ab; copies: 1 + 1 + 2
B35: GpH7-A5/GpH7-B3 variant Y300_01G/GpL16-k0 (antibody, human IgG1, kappa)
heavy 1: not shown
heavy 2: not shown
light: B1 light
notes: He Ab; copies: 1 + 1 + 2
B36: GpH7-A5/GpH7-B3 variant Y300_11K/GpL16-k0 (antibody, human IgG1, kappa)
heavy 1: not shown
heavy 2: not shown
light: B1 light
notes: He Ab; copies: 1 + 1 + 2
B37: GpH7-A5/GpH7-B3 variant Y296_04F/GpL16-k0 (antibody, human IgG1, kappa)
heavy 1: not shown
heavy 2: not shown
light: B1 light
notes: He Ab; copies: 1 + 1 + 2
B38: GpH7-A5/GpH7-B3 variant S324_10E/GpL16-k0 (antibody, human IgG1, kappa)
heavy 1: not shown
heavy 2: not shown
light: B1 light
notes: He Ab; copies: 1 + 1 + 2
B39: GpH7-A5/GpH7-B3 variant Y300_03V/GpL16-k0 (antibody, human IgG1, kappa)
heavy 1: not shown
heavy 2: not shown
light: B1 light
notes: He Ab; copies: 1 + 1 + 2
B40: GpH7-A5/GpH7-B3 variant V266_02A/GpL16-k0 (antibody, human IgG1, kappa)
heavy 1: not shown
heavy 2: not shown
light: B1 light
notes: He Ab; copies: 1 + 1 + 2
B41: GpH7-A5/GpH7-B3 variant Y296_06M/GpL16-k0 (antibody, human IgG1, kappa)
heavy 1: not shown
heavy 2: not shown
light: B1 light
notes: He Ab; copies: 1 + 1 + 2
B42: GpH7-A5/GpH7-B3 variant Y296_09D/GpL16-k0 (antibody, human IgG1, kappa)
heavy 1: not shown
heavy 2: not shown
light: B1 light
notes: He Ab; copies: 1 + 1 + 2
B43: GpH7-A5/GpH7-B3 variant Y296_14T/GpL16-k0 (antibody, human IgG1, kappa)
heavy 1: not shown
heavy 2: not shown
light: B1 light
notes: He Ab; copies: 1 + 1 + 2
B44: GpH7-A5/GpH7-B3 variant S324_12R/GpL16-k0 (antibody, human IgG1, kappa)
heavy 1: not shown
heavy 2: not shown
light: B1 light
notes: He Ab; copies: 1 + 1 + 2
B45: GpH7-A5/GpH7-B3 variant S324_09D/GpL16-k0 (antibody, human IgG1, kappa)
heavy 1: not shown
heavy 2: not shown
light: B1 light
notes: He Ab; copies: 1 + 1 + 2
B46: GpH7-A5/GpH7-B3 variant Y296_10E/GpL16-k0 (antibody, human IgG1, kappa)
heavy 1: not shown
heavy 2: not shown
light: B1 light
notes: He Ab; copies: 1 + 1 + 2
B47: GpH7-A5/GpH7-B3 variant Y300_18N/GpL16-k0 (antibody, human IgG1, kappa)
heavy 1: not shown
heavy 2: not shown
light: B1 light
notes: He Ab; copies: 1 + 1 + 2
B48: GpH7-A5/GpH7-B3 variant Y296_07I/GpL16-k0 (antibody, human IgG1, kappa)
heavy 1: not shown
heavy 2: not shown
light: B1 light
notes: He Ab; copies: 1 + 1 + 2

biological target: T4, FcγRIa extracellular domain, His-tagged (human, UniProt P12314 16-292); assay: SPR, vs GpH7-A5/GpH7-B3/GpL16-k0 =100
T4 construct: extracellular domain; also called 1a
T4 sequence (P12314 other isoform, or with tags, fused parts or gaps): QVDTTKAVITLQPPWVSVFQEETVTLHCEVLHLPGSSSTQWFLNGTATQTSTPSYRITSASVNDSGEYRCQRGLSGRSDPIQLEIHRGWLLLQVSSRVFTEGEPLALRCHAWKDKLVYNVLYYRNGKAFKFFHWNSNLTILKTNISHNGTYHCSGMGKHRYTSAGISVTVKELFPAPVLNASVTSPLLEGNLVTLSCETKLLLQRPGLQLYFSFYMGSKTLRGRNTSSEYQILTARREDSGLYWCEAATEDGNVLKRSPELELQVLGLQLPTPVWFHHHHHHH

He/Con 1a | Binder
108 % of control | B1
93.2 % of control | B2

biological target: T1, FcγRIIa(R) extracellular domain, …; assay: SPR, vs GpH7-A5/GpH7-B3/GpL16-k0 =100

He/Con 2aR | Binder
100 % of control | B1
62.8 % of control | B2

biological target: T2, FcγRIIa(H) extracellular domain, …; assay: SPR, vs GpH7-A5/GpH7-B3/GpL16-k0 =100

He/Con 2aH | Binder
93.5 % of control | B1
81.8 % of control | B2

biological target: T3, FcγRIIb extracellular domain, His-tagged; assay: SPR, vs GpH7-A5/GpH7-B3/GpL16-k0 =100

He/Con 2b | Binder
90.3 % of control | B1
50.8 % of control | B2

biological target: T5, FcγRIIIa extracellular domain, His-tagged (human, UniProt P08637 17-208); assay: SPR, vs GpH7-A5/GpH7-B3/GpL16-k0 =100
T5 construct: extracellular domain; also called 3a
T5 sequence (P08637 other isoform, or with tags, fused parts or gaps): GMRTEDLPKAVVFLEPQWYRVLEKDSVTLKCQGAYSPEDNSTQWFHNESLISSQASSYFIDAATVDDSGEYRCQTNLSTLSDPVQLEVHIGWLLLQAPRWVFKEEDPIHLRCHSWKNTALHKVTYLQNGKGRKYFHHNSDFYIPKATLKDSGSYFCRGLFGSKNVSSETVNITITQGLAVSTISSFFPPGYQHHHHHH

He/Con 3a | Binder
90.3 % of control | B1
65.1 % of control | B2

biological target: T6, FcγRIIIa extracellular domain, C-terminal His tag (human, UniProt P08637 17-208); assay: SPR, binding activity relative to GpH7-A5/GpH7-B3/GpL16-k0 (=100)
T6 construct: extracellular domain; also called 3a
T6 sequence (P08637 other isoform, or with tags, fused parts or gaps): as above

He/Con 3a [%] | Binder
104 | B3
51.3 | B4
103 | B5
88.1 | B6
112 | B7
69.1 | B8
113 | B9
72.4 | B10
105 | B11
58.1 | B12
101 | B13
92.8 | B14
66.3 | B15
100 | B16
113 | B17
84.9 | B18
66.5 | B19
114 | B20
127 | B21
110 | B22
67.9 | B23
69.1 | B24
103 | B25

He/Con 3a [%] | Binder
53.3 | B26
90.2 | B27
106 | B28
117 | B29
96.2 | B30
71.4 | B31
80.3 | B32
113 | B33
102 | B34
88.6 | B35
63.7 | B36
79.5 | B37
108 | B38
83.8 | B39
56.8 | B40
74.6 | B41
89 | B42
60.7 | B43
98.1 | B44
110 | B45
76.8 | B46
96 | B47
75.8 | B48
